Legend:
[1] = target: Notch1 on CHO-K1 N1-Gal4 fluorescent reporter cells (UniProt P46531 19-2555, limits assumed); experiment: cell-based or functional assay
[2] = target: Notch1 on U2OS hNotch1-Gal4 luciferase reporter cells (human, UniProt P46531 19-2555); experiment: cell-based or functional assay
[3] = target: T1, hNotch2 (EGF6-13, residues 221-530), biotinylated (human, UniProt Q04721 221-530, Biotinylated in vitro by BirA at the C-terminal BAP-tag (tag not in the letters).); experiment: SPR (Biacore T200), biotinylated Notch fragment on streptavidin chip, DLL4 protein (N-EGF5) in flow, 1:1 model
T1 construct: Immobilised on a streptavidin chip for SPR
T1 sequence: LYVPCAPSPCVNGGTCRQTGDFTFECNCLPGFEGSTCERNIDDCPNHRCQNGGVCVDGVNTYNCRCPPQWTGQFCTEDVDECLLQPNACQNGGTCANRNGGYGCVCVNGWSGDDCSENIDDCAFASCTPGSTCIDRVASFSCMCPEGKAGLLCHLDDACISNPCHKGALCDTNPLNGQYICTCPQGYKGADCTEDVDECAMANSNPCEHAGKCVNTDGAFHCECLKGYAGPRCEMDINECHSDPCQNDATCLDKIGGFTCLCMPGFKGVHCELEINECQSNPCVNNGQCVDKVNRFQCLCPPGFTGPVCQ
Procedure: (§1) The rapid dissociation of WT DLL4 precluded kinetic fitting of the binding data.
(§2) Equilibrium dissociation constants were determined by surface plasmon resonance using a Biacore T200 instrument (GE Healthcare). Approximately 100 resonance units (RU) of biotinylated Notch extracellular fragments (Notch1 (EGF6-13), Notch2 (EGF6-13), Notch3 (EGF5-12), Notch4 (7-12), and mouse Notch1 (EGF6-13)) were immobilized on individual flow cells at 5 μl/min using a streptavidin-coated sensor chip (Series S Sensor chip SA, GE Healthcare). Three-fold serial dilutions of recombinant DLL4 proteins (N-EGF5) starting at 50 μM (WT DLL4), 18 μM (DLL4.v2), and 6 μM (DLL4.v1 and Delta^MAX) were flowed over the chip at 25° C. in SPR buffer (20 mM HEPES pH 7.4, 150 mM NaCl, 1 mM calcium chloride, 0.1% BSA supplemented with 0.005% surfactant P20). Association (“on-rate”) and dissociation (“off-rate”) phases were performed at 10 μl/min for 120 seconds and 300 seconds, respectively. […] Data collection rate was performed at 10 Hz, and curves were reference-subtracted from a flow cell containing 100 RU of a negative control non-related protein (biotinylated mouse RNF43 PA domain). The maximum RU for each experiment was normalized to a value of 100% and plotted as a function of concentration using Prism 9 software (GraphPad). Steady-state binding and kinetic curves were fitted using the Biacore T200 evaluation software to a 1:1 Langmuir model to determine the KD values.

[4] = target: T2, hNotch3 (EGF5-12, residues 197-505), biotinylated (human, UniProt Q9UM47 197-505, Biotinylated in vitro by BirA at the C-terminal BAP-tag (tag not in the letters).); experiment: as above
T2 construct: Immobilised on a streptavidin chip for SPR
T2 sequence: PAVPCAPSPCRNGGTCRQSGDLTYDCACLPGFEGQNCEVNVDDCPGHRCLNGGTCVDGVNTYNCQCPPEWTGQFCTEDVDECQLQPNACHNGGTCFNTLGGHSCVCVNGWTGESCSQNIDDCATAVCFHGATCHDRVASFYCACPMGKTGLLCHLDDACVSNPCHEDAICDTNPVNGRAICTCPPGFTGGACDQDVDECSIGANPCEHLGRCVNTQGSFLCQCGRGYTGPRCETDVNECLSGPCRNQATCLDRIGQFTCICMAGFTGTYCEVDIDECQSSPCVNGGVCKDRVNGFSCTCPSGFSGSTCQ
Procedure: as §1, §2

[5] = target: T3, hNotch4 (EGF7-12, residues 276-511), biotinylated (human, UniProt Q99466 276-511, Biotinylated in vitro by BirA at the C-terminal BAP-tag (tag not in the letters).); experiment: as above
T3 construct: Immobilised on a streptavidin chip for SPR; also called Notch4 (7-12)
T3 sequence: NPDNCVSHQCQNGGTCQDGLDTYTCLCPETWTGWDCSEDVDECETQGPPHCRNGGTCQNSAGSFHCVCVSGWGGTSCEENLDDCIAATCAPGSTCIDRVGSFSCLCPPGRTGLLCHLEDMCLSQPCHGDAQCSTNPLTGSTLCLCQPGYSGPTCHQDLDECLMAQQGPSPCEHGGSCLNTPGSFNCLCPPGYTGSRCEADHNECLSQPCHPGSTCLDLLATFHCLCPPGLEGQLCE
Procedure: as §1, §2

[6] = target: T4, mouse Notch1 (EGF6-13, residues 221-526), biotinylated (mouse, UniProt Q01705 221-526, Biotinylated in vitro by BirA at the C-terminal BAP-tag (tag not in the letters).); experiment: SPR (Biacore T200), biotinylated mNotch1 EGF6-13 on streptavidin chip, DLL4 protein (N-EGF5) in flow, 1:1 model
T4 construct: Immobilised on a streptavidin chip for SPR; also called mNotch1 EGF6-13; mNotch1 (6-13)
T4 sequence: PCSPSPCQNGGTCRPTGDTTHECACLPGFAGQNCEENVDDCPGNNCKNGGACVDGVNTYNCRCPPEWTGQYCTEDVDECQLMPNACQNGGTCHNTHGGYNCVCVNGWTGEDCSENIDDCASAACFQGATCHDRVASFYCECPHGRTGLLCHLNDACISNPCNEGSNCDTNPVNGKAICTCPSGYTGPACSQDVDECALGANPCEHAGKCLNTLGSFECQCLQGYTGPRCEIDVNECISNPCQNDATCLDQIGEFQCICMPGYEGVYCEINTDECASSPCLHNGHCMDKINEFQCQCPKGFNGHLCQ
Procedure: The binding affinity was measured between each DLL4 variant and the EGF6-13 region of murine Notch1 (mNotch1 EGF6-13) to test for cross-species reactivity (FIGS. 2B, 10, 11A). […] Lastly, the binding of Delta^MAX to full-length, cell surface-expressed Notch1 was assessed.
Equilibrium dissociation constants were determined by surface plasmon resonance using a Biacore T200 instrument (GE Healthcare). Approximately 100 resonance units (RU) of biotinylated Notch extracellular fragments (Notch1 (EGF6-13), Notch2 (EGF6-13), Notch3 (EGF5-12), Notch4 (7-12), and mouse Notch1 (EGF6-13)) were immobilized on individual flow cells at 5 μl/min using a streptavidin-coated sensor chip (Series S Sensor chip SA, GE Healthcare). Three-fold serial dilutions of recombinant DLL4 proteins (N-EGF5) starting at 50 μM (WT DLL4), 18 μM (DLL4.v2), and 6 μM (DLL4.v1 and Delta^MAX) were flowed over the chip at 25° C. in SPR buffer (20 mM HEPES pH 7.4, 150 mM NaCl, 1 mM calcium chloride, 0.1% BSA supplemented with 0.005% surfactant P20). Association (“on-rate”) and dissociation (“off-rate”) phases were performed at 10 μl/min for 120 seconds and 300 seconds, respectively. […] Data collection rate was performed at 10 Hz, and curves were reference-subtracted from a flow cell containing 100 RU of a negative control non-related protein (biotinylated mouse RNF43 PA domain). […]

Sequence of Notch1 on CHO-K1 N1-Gal4 fluorescent reporter cells (P46531 19-2555 limits assumed): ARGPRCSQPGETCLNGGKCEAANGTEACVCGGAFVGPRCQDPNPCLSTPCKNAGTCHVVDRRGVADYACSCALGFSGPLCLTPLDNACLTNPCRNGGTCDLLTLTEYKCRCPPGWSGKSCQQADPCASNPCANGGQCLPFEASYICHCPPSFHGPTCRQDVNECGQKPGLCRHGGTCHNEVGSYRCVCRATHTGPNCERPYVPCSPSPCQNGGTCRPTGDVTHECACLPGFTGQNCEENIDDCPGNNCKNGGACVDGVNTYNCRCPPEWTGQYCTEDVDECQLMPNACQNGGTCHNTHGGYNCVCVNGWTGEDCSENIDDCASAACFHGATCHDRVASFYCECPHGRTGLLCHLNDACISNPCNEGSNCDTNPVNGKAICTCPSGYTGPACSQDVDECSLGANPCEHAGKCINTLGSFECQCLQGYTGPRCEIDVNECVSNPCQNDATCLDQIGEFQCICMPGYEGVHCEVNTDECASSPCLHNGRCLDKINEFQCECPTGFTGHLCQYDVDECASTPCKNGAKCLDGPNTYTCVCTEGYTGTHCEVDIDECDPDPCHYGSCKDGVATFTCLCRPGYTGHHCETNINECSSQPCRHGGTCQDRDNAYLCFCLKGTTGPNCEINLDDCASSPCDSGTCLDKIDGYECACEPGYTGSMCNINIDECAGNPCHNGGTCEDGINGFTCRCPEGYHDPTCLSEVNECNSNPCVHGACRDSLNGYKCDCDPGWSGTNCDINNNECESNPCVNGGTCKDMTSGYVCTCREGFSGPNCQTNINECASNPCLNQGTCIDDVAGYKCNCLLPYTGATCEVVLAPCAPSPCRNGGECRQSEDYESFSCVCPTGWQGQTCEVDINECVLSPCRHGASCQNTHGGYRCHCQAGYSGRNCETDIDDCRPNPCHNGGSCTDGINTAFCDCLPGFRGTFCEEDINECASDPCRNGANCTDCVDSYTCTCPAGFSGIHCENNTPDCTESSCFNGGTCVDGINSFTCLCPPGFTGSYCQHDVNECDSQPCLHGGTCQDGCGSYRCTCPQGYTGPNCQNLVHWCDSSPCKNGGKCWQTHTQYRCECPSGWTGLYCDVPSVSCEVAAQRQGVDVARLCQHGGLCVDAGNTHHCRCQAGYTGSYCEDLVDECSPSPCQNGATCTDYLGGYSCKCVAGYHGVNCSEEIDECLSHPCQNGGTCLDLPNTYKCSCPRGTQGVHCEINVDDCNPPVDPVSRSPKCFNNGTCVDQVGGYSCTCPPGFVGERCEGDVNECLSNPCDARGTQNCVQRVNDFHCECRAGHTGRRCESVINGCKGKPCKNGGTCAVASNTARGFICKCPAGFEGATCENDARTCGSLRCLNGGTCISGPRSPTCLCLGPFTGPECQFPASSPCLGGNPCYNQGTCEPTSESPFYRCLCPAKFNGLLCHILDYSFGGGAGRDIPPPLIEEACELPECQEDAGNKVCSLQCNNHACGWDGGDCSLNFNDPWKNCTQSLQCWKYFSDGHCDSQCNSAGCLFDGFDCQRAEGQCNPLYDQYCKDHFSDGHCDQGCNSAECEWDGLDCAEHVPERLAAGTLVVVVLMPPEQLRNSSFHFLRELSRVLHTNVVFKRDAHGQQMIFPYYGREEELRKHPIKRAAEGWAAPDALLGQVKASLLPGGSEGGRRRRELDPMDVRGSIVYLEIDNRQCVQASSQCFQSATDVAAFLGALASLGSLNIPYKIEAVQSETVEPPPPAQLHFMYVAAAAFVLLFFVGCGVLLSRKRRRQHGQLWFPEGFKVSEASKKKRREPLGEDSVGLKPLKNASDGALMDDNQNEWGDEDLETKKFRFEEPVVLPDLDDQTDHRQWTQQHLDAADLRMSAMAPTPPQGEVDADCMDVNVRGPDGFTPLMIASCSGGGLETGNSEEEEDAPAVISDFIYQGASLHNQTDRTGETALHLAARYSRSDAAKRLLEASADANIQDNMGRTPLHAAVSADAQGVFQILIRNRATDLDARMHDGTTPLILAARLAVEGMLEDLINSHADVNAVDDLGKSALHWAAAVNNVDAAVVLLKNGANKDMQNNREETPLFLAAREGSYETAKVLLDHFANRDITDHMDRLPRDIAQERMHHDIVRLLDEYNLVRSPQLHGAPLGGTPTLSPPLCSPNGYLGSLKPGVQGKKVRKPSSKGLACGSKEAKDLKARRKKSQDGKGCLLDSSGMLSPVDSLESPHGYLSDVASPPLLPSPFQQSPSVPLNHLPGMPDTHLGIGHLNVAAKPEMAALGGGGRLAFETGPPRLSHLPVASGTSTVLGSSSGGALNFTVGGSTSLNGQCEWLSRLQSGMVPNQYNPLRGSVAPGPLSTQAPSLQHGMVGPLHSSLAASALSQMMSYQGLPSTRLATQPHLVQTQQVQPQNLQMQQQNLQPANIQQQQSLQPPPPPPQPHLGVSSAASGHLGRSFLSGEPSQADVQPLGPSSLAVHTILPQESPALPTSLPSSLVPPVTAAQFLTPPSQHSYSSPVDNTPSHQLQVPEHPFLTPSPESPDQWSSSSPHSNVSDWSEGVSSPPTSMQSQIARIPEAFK
Sequence of Notch1 on U2OS hNotch1-Gal4 luciferase reporter cells (P46531 19-2555): as the sequence (P46531 19-2555 limits assumed) above

B1: Delta^MAX (N-EGF5), non-biotinylated (ligand)
chain: SSVFQLQLQEFINERGVLASGRPCEPGCRTFFRVCLKHFQAVVSPGPCTFGTVSTPVLGTNSFAVRDDSSGGGRNPLQLPLNFTWPGTFSLIIEAWHAPGDDLRPEALPPDALISKFAIQGSLAVGQNWLLDEQTSTLTRLRYSYRVICSDNYYGDNCSRLCKKRNDYFGHYVCQPDGNPSCLPGWTGEYCQQPICLSGCHEQNGYCSKPAECLCRPGWQGRLCNECIPHPGCRHGTCSTPWQCLCDEGWGGLYCDQDLNYCTHHSPCKNGATCRNSGPRSYTCTCRPGYTGVDCELELSECDSNPCRNGGSCKDQEDGYHCLCPPGYYGLHCEHSTLSCADSPCFNGGSCRERNQGANYACECPPNFTGSNCEHHHHHHHH
notes: also called DLL4^MAX; soluble Delta^MAX
EC50 of Notch1 activation, fluorescent reporter cells, ligand non-specifically adsorbed to plates [1]: 0.009 ng/mm^2 | IC50 of inhibition of Notch1 activation on WT DLL4-coated plates (comparison with DAPT and BB-94) [1]: 1 nM | IC50 of inhibition of Notch1 reporter signalling in co-culture with HEK293T cells expressing WT DLL4 [1]: 400 nM | IC50 of inhibition of Notch1 reporter signalling on WT DLL4-coated plates [1]: 0.6 nM | improvement in Notch activation efficiency against WT DLL4 (adsorbed ligand) [1]: 250 fold | increase in Notch1 activation relative to control, non-specific adsorption [2]: 23 fold | Kd [3]: 54 nM | Kd [4]: 49 nM | Kd [5]: 24 nM | Kd [6]: 25 nM
